Experimental findings from the nanobody polyreactivity screen of Harvey et al. (2022) are described below.

This data set is described as follows: yeast display, Sf9 membrane polyspecificity reagent, FACS + sequencing; frameworks hold sequencing errors. Summed up: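 Galactose-induced (36–48 hours) yeast carrying a synthetic nanobody display library were exposed to 10% biotinylated, detergent-solubilized Sf9 membrane reagent at 4 °C for 1 hour. FACS followed streptavidin microbead enrichment, using low and high (top ~1%) gates for expression (anti-HA) and reagent binding (streptavidin). Colony PCR, MiSeq 2 × 250 sequencing and CDR-length filtering followed. Labels for polyreactivity reflect the gate of origin.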
Turning to “QVQLVESGGGLVQAGGSLRLSCAASGRIFADNAMGWYRQAPGKERELVADITYSGGSTYYADSVKGRFTISRDNAKNTVYLQMNSLNPEDTAVYYCAKQGVDYWGQGTQVTVSS”, the “polyreactivity (PSR sort gate)” value is on record as “low polyreactivity”.

Take “QVQLVESGGGLVQAGGSLRLSCAASGRIFADYGMGWYRQAPGKERELVAAITDRGGTTYYADSVKGRFTISRDNAKNTVYLQMNSLKPEDTAVYYCAADTPDAPDYSGFYYWGQGTQVTVSS”: the “polyreactivity (PSR sort gate)” value is given as “low polyreactivity”.

“QVQLVESGGGLVQAGGSLRLSCAASGRIFAENAMGWYRQAPGKERELVAAISRTGSRTYYADSVKGRFTISRDNAKNTVYLQMNSLKPEDSAVYYCNKVSAQDEFRSRGYWGQGTQVTVSS”: the “polyreactivity (PSR sort gate)” value was “high polyreactivity”.

“QVQLVESGGGLVQAGGSLRLSCAASGRIFAGYAMGWYRQAPGKEREFVATITSRAGNTYYADSVKGRFTISRDNAKNTVYLQMNSLKPEDTGVYYCAARSRGWAGYYYWYKDYSWGQGTQVTVSS”: the “polyreactivity (PSR sort gate)” value is reported as “high polyreactivity”.

Consider “QVQLVESGGGLVQAGGSLRLSCAASGRIFAHNAMGWYRQAPGKERELGASINSGGSTTYADSVKGRFTISRDNAKNTVYLQMNSLKPEDTAVYDCAKRDKYGKYDYWGQGTQVTVSS”, for which the “polyreactivity (PSR sort gate)” value is “low polyreactivity”.

Turning to “QVQLVESGGGLVQAGGSLRLSCAASGRIFAHYAMGWYRQAPGKERELVAAIRRSGVSTYYADSVKGRFTSSRDNAKNTVYLQMNSLKPEDTAVYYCNARAYVSPYDYWGQGTQVTVSS”, the “polyreactivity (PSR sort gate)” value was “low polyreactivity”.

“QVQLVESGGGLVQAGGSLRLSCAASGRIFAIYAAIGWYRQAPGKERELVAAISSGDNTNYADSEKGRFTISRDNAKNTVYLQMNSLIPEDTAVYYCATDLVYYAAVTKFAEYDYWGQGTQVTVSS”: the “polyreactivity (PSR sort gate)” value was “low polyreactivity”.

For the sequence “QVQLVESGGGLVQAGGSLRLSCAASGRIFAPYAMGWYRQAPGKERELVAAITSGGSTNYADSVKGRFTISRDNAKNTVYVQMNSLKPEDTAVYYCAAEASYNYGKYVVTYDYWGQGTQVTVSS”, the “polyreactivity (PSR sort gate)” value is given as “high polyreactivity”.

As to “QVQLVESGGGLVQAGGSLRLSCAASGRIFAPYDMGWYRQAPGKERELVASITSGGSTNYTDSVKGRFTISRDNAKNTVYLQMNSLKPEDTAVYYCNTAKISEPTDPLQRVWGGTYDYWGQGTQVTVSS”, the “polyreactivity (PSR sort gate)” value is reported as “low polyreactivity”.

As for “QVQLVESGGGLVQAGGSLRLSCAASGRIFARNALGWYRQAPGKEGELVARIRASGGSTYYADSVKGRFTISRDNEKNTVYLQMNSLKPEDTAVYYCNARTSSPYRVDYWGQGTQVTVSS”, the “polyreactivity (PSR sort gate)” value is “high polyreactivity”.

Regarding “QVQLVESGGGLVQAGGSLRLSCAASGRIFARNAMGWYREAPGKERELVATIRVGGGSTYYADSVKGRFTISRHNAKNTVYLQMNSLKPEDTAVYYCAVRQLYSYPGDRRGYYWGQGTQVNVSS”, the “polyreactivity (PSR sort gate)” value was “low polyreactivity”.

For “QVQLVESGGGLVQAGGSLRLSCAASGRIFARNAMGWYRQAPGKERELVAGITWSGSSTYYADSVKGRFTISRDNAKNTVYLQMNSLKPEDTAVYYCAVDYYVGSLRIDHDYWGQGTQVTVSS”, the “polyreactivity (PSR sort gate)” value is given as “low polyreactivity”.

For “QVQLVESGGGLVQAGGSLRLSCAASGRIFARNAMGWYRQAPGKERELVATIRVGGGSTYYADSVKGRFTISRDNAKNTVYLQMNSLKPEDTAVYYCAVRQLYSYPGDRRGYYWGQGTQVTVSS”, the “polyreactivity (PSR sort gate)” value is on record as “low polyreactivity”.

For “QVQLVESGGGLVQAGGSLRLSCAASGRIFARYAMGWNRQAPGKERELVAAISFRGGSTYYADSVKGRFTISRDNAKNTVYLQINSLKPEDTAVYYWNARYGRGGYDYWGQGTQVTVSS”, the “polyreactivity (PSR sort gate)” value is reported as “high polyreactivity”.

Regarding “QVQLVESGGGLVQAGGSLRLSCAASGRIFARYAMGWYRPAPGKERELVAAITKSVGSTYYADSVKGRFTISRDNAKYTVYLQMNRLKPEDTAVYYCNAVARGYGYDYWGQGTQVTVSS”, the “polyreactivity (PSR sort gate)” value is recorded as “high polyreactivity”.

In the case of “QVQLVESGGGLVQAGGSLRLSCAASGRIFARYAMGWYRQAPGKETELVAAISRGGSTKYADSVKGRFTISRDNAKNTVYLQMNSLNPVDTAVYYCARQLWGSPYGAYYAGDYWGQGTQVTVSS”, the “polyreactivity (PSR sort gate)” value is “low polyreactivity”.
